Data as given in US6913892.
Where no end group is shown, it is not given here.

Target: Y2-like receptor population expressed by human SK-N-Be(2) neuroblastoma cells
Assay: 125I-PYY displacement, SK-N-Be(2) membranes

Ki: 0.86 nM
Binder: SPEELSRYYASLRHYLNLVTRQRY-NH2 (peptide, UniProt P68005 13-36, looked up) [porcine PYY13-36]
